Drawing on article PMC6684648, this text covers fold reduction of IGF2 binding against wild type for 1 substance.

The target in this experiment is human IGF2R extra-cellular domains 1-15 I1572A fused at the C-terminal to rat CD4 (domains 3 + 4), biotin acceptor domain and histidine tag (human) (UniProt P11717). In words: SPR; BIAcore T200; about 1800 RU of biotinylated CD4-IGF2R fusion protein immobilised on a CM5 chip loaded with streptavidin; IGF2 256 to 0.125 nM injected for 200 s, 25 °C, 40 μl/min, HBS-EP; 1:1 binding model and steady state analysis.
human IGF2R extra-cellular domains 1-15 I1572A fused at the C-terminal to rat CD4 (domains 3 + 4), biotin acceptor domain and histidine tag (human), sequence (P11717 41-2304 I1572A): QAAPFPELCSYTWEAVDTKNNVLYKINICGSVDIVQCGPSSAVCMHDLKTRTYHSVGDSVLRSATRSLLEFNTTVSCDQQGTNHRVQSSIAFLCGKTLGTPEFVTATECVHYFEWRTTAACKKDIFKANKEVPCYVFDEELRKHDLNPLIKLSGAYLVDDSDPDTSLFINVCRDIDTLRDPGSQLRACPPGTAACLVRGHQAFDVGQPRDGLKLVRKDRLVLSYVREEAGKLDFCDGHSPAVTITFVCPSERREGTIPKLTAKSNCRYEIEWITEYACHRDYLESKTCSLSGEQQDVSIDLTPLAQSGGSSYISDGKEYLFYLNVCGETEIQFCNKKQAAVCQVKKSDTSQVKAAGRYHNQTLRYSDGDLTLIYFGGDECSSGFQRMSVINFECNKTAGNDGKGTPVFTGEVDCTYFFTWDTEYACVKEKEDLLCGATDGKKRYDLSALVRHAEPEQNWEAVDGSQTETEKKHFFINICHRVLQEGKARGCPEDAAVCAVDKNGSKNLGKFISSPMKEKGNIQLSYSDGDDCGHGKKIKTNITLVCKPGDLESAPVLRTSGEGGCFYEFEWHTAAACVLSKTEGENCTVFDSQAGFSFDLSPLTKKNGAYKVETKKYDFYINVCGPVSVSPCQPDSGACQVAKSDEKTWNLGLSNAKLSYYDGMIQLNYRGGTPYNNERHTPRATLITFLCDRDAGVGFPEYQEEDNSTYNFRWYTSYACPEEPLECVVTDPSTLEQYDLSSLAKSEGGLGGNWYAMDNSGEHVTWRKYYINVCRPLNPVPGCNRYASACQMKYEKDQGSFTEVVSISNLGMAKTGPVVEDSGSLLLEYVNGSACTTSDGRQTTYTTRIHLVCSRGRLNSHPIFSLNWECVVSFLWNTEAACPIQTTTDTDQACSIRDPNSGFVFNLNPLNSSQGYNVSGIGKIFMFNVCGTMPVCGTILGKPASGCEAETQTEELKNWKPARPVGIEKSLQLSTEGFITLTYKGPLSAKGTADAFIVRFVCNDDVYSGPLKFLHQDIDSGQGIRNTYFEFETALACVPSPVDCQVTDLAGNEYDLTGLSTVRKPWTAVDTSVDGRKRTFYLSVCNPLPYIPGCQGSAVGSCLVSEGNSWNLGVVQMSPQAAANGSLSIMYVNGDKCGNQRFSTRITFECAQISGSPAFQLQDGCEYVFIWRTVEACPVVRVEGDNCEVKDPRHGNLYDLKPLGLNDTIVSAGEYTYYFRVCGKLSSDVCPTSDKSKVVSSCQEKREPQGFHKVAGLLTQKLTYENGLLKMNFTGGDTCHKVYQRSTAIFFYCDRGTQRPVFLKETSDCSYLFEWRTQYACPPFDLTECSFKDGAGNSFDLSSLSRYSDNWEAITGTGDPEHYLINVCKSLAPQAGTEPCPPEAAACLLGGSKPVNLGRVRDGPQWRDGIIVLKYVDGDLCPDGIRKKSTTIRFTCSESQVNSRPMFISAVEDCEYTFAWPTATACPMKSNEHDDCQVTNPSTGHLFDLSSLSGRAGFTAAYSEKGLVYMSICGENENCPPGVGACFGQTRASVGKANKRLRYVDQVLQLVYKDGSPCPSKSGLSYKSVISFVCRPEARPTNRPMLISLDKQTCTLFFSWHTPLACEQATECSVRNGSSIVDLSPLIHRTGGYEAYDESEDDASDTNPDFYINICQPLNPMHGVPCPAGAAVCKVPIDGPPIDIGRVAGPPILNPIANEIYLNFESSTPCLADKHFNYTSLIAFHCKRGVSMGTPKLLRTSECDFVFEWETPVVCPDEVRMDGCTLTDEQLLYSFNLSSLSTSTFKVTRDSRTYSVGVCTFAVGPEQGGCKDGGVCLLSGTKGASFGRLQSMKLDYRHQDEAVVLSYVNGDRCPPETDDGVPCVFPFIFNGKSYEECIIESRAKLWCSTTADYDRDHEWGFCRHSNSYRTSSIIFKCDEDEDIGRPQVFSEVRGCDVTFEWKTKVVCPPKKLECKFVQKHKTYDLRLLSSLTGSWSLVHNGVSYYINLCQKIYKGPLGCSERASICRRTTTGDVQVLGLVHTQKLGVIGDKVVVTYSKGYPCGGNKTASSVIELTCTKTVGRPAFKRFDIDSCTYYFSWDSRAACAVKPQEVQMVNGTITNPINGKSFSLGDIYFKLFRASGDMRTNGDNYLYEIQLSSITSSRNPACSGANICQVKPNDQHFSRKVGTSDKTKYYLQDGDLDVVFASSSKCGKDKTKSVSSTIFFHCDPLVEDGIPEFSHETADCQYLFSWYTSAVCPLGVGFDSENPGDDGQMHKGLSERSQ

Consider human IGF2 (ligand), for which the fold reduction of IGF2 binding against wild type stood at 100 fold.
